For data set [1], the target named is T1, KorB (ParB family protein from the IncP1 plasmid RK2) (plasmid RK2 (IncP1), UniProt P07674 1-358).
T1 construct: KorB of plasmid RK2 (IncP1), 358 amino acid residues per subunit, homodimer; also called WT KorB; ^1H-KorB; source: E. coli BL21(λDE3), His-tagged fusion, purified as described previously [21]; also partially deuterated (~70% D2O M9 medium) and ^15N-labelled
T1 sequence (looked up): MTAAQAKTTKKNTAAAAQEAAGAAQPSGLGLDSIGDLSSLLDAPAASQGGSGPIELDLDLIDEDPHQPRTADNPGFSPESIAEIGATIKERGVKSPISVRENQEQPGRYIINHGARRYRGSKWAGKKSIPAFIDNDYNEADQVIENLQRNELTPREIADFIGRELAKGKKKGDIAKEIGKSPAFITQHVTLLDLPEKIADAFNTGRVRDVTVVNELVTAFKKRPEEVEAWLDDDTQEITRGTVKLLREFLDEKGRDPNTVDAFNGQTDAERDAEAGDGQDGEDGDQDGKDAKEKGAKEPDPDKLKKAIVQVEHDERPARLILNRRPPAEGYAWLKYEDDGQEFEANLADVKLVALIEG
In words: NMR titration; ^15N-^1H TROSY at 800 MHz of ^15N/^2D KorB (~0.1 mM dimer) titrated with unlabelled KorA (1 and 2 equivalents); 10 mM sodium phosphate pH 7.0, 100 mM NaCl, 0.1 mM EDTA, 30°C. The conditions noted are these: both partners purified.

The target of a further data set is (NΔ150)KorB (Escherichia coli (expression host); …, UniProt P07674 151-358, del1-150). In words: SAXS, SANS; complex mass consistent with protein + DNA (67.5 kDa calculated); Buffer, salt, pH and temperature not given in the material; NMR at 800 MHz; SANS in 0, 65 or 100% D2O. The conditions noted are these: protein: recombinant; tags: His-tag; chain copies: 2; blunt (only one strand printed; complement implied).

Data set [2] concerns the target T2, KorB (Escherichia coli (expression host); …, UniProt P07674 1-358). In words: NMR (15N-1H TROSY titration), SAXS, SANS; KorB dimer:OB 1:1; DBD and N-terminal peaks lost, CTD unaffected; Buffer, salt, pH and temperature not given in the material; NMR at 800 MHz; SANS in 0, 65 or 100% D2O. The conditions noted are these: protein: recombinant; tags: His-tag; chain copies: 2; blunt (only one strand printed; complement implied).

The next data set deals with KorA (Escherichia coli (expression host); …, UniProt P03052 1-101). In words: CD; 1 equivalent KorA; change at 280 nm; Buffer, salt, pH and temperature not given in the material; NMR at 800 MHz; SANS in 0, 65 or 100% D2O. The conditions noted are these: protein: recombinant; tags: none; chain copies: 2; blunt (only one strand printed; complement implied).
For data set [3], the target named is T2, KorB. In words: CD; 1 equivalent KorB; change at 280 nm; Buffer, salt, pH and temperature not given in the material; NMR at 800 MHz; SANS in 0, 65 or 100% D2O. The following applies: protein: recombinant; tags: His-tag; chain copies: 2; blunt (only one strand printed; complement implied).
The next data set has as its target KorB;KorA (Escherichia coli (expression host); …, UniProt P07674;P03052 1-358;1-101, |). Put plainly: NMR (15N-1H TROSY), CD, SANS; ternary KorA/KorB/OAOB complex; Buffer, salt, pH and temperature not given in the material; NMR at 800 MHz; SANS in 0, 65 or 100% D2O. The following applies: protein: recombinant;recombinant; tags: His-tag;none; chain copies: 2;2; blunt (only one strand printed; complement implied).

B1: KorA (repressor from the plasmid RK2) (natural protein, plasmid RK2 (IncP1), UniProt P03052 1-101, looked up)
chain: MKKRLTESQFQEAIQGLEVGQQTIEIARGVLVDGKPQATFATSLGLTRGAVSQAVHRVWAAFEDKNLPEGYARVTAVLPEHQAYIVRKWEADAKKKQETKR
notes: KorA of plasmid RK2; used as a dimer; the domain scheme runs from residue 1 to 101; also called ^1H-KorA; ^2D-KorA; source: E. coli BL21(λDE3), without a tag, purified as before [14]
As for B1, in data set [1], the “stoichiometry N” value was 2 KorA dimers per KorB dimer.

B2: OB (dsDNA)
DNA 1: CGAGAATTTTAGCGGCTAAAAAGGGC
DNA 2: GCCCTTTTTAGCCGCTAAAATTCTCG
On to B2, for which the binding result with (NΔ150)KorB and with KorB [2] was “binds” in each case.

B3: OAOB (dsDNA)
DNA 1: GGACGAGTTTTAGCGGCTAAAGGTGTTGACGTGCGAGAAATGTTTAGCTAAACTTCG
DNA 2: CGAAGTTTAGCTAAACATTTCTCGCACGTCAACACCTTTAGCCGCTAAAACTCGTCC
B3: the binding result with KorA, in the data set with KorB [3] and in the data set with KorB;KorA was “binds” in each case.

(Values after article PMC5577506, “Intrinsic disorder in the partitioning protein KorB persists after co-operative complex formation with operator DNA and KorA” (Biochemical Journal, 2017).)
